Assay results: patent US20170275357A1

Target: PDGFRα/PDGFRβ
Assay: cell-based or functional assay

% Inhibition of PDGFC-induced NHLF proliferation: 70%
% Inhibition of PDGFD-induced NHLF proliferation: 100%
B1: α/βVCV2 IgG1.1 (bispecific antibody)
heavy: EVQLVESGGGLVKPGGSLKLSCAASGFAFSSYAMSWVRQSPEKRLEWVATISSGGHYTFYPDSVKGRFTISRDNAKNTLYLQMSSLRSEDTAIYYCARRYYALDYWGQGTSVTVSSASTKGPSVFPLAPSSKSTSGGTAALGCLVKDYFPEPVTVSWNSGALTSGVHTFPAVLQSSGLYSLSSVVTVPSSSLGTQTYICNVNHKPSNTKVDKKVEPKSCGGGGSGGGGSEVQLQQSGPELVKTGASVKISCKASGYSFINHYMNWVKQSRGKSLEWIGYVSCYNGATGYNQKFKDKATFTVDTSSSTAYMQFNNLTSEDSAVYYCARRGFMEAMDYWGQGTSVTVSSEPKSSDKTHTCPPCPAPEAEGAPSVFLFPPKPKDTLMISRTPEVTCVVVDVSHEDPEVKFNWYVDGVEVHNAKTKPREEQYNSTYRVVSVLTVLHQDWLNGKEYKCKVSNKALPSSIEKTISKAKGQPREPQVYTLPPSRDELTKNQVSLTCLVKGFYPSDIAVEWESNGQPENNYKTTPPVLDSDGSFFLYSKLTVDKSRWQQGNVFSCSVMHEALHNHYTQKSLSLSPGK
light: DIVMTQSQKFMSTSLGDRVSVSCKASQNVLTNVAWYQQKPGQSPKTLIYSASYRYSGVPDRFTGSGSGTDFTLTISIVQSEDLAEYFCQQYNIYPWTFGGGTKLEIKRTVAAPSVFIFPPSDEQLKSGTASVVCLLNNFYPREAKVQWKVDNALQSGNSQESVTEQDSKDSTYSLSSTLTLSKADYEKHKVYACEVTHQGLSSPVTKSFNRGECGGGGSGGGGSDIVMTQSPFSLTVTVGEKVTMSCKSSQSLLNSRTRKNYLAWYQQKPGQSPKLLIYWASTRESGVPDRFTGSGSGTDFTLTISSVQAEDLAVYYCKQSYNLYTFGGGTKLEIK
